Measurements published in patent US20230374114A1 (published 2023).
Residue numbers refer to the chain shown, from its start.

B1: Ab 15 scFv-Fc (scFv, V domains shown)
VH: QVQLVQSGGGLVKPGRSLRLSCTASGFTFGDYAMSWFRQAPGKGLEWVGFIRSKAYGGTTGYAASVKGRFTISRDDSKSIAYLQMNSLKTEDTAVYYCTTADDDMDVWGKGTTVTVSS
VL: NFMLTQPHSVSESPGKTVTISCTRSSGTIASNYVQWYQQRPGSAPTTVIYEDNQRPSGVPDRFSGSIDRSSNSASLTISGLTPDDEADYYCQSYDTSNHYVFGTGTKVTVL
B2: Ab_13 (scFv, V domains shown)
VH: QVTLKESGPKLVKPTQTLTLTCTFSGFSLSTSGVGVGWIRQPPGKALEWLALIYWDDDKRYSPSLKSRLTIAKDTSKYQVVLTMTNMDPVDTATYYCARISGSGYFYPFDIWGQGTMVTVSA
VL: B1 VL with T28S, R69S, T82K, P83T, D84E, T96S, H99L, Y100W, T104G, V108L
B3: Ab 26 scFv-Fc (scFv, V domains shown)
VH: QVQLVQSGGGLVQPGRSLRLSCAASGFTFDDYAMHWVRQVPGKGLEWVSGIDWNSGVIGYADSVKGRFTISRDNAKNSLYLQMNSLRAEDTALYYCAKDAYSYGFLGAFDIWGQGTMVTVSS
VL: LPVLTQPPSVSVAPGQTASITCGGDNIRTKGVHWYQQKPGQAPLLVIYYASDRPSGIPERFSGSSSGNTATLTISRVEAGDEADYYCQVWDSSSDLVVFGGGTTLTVL
B4: Ab 14 scFv-Fc (scFv, V domains shown)
VH: QVQLQQSGPGLVKPSQTLSLTCAISGDSVSSNSAAWNWIRQSPARGLEWLGRTYYRSRWYNDYAISMKSRITINPDTSKNQFSLQLESVTPEDTAVYYCAREIRGFDYWGQGTLVTVSS
VL: QSVLTQPPSASGSPGQSVTISCTGTSSDVGAYNFVSWYQHHPGKAPKLIIYDFNKRPSGVPDRFSGSKSGNTASLTVSGLQADDEADYYCSSYAGSNNFDVVFGGGTKLTVL
B5: Ab_17 (scFv, V domains shown)
VH: QVQLVQSGGGVVQPGRSLRLSCAASGFTFDDYAMHWVRQVPGKGLEWVSGIDWNSGVIGYADSVKGRFTISRDNVKNSLYLQMNSLRTEDSALYYCAKDIGPGGSGSYYAFDIWGQGTTVTVSS
VL: QSALTQPASVSGSPGQSITISCTGTSSDVGGSKYVSWYQQHPGKAPKVMIYDVTKRPSGVPDRFSGSKSGNTASLTISGLQAEDEADYYCAAWDDSLNGVVFGGGTKLTVL
B6: Ab 25 scFv-Fc (scFv, V domains shown)
VH: QVQLVQSGGGLVQPGGSLRLSCAASGFTFSSYWMSWVRQAPGKGLEWVANIKQDGSEKYYVDSVKGRFTISRDNAKNSLYLQMNSLRAEDTAVYYCARGFYYYGAFDIWGQGTTVTVSS
VL: NFMLTQPHSVSESPGKTVTISCTGSSGSIASNYVQWYQQRPGSAPTTVIYEDNQRPSGVPDRFSGSIGSSSNSASLTISGLKTEDEADYYCQSYDSSNHWVFGGGTKLTVL
B7: Ab 28 scFv-Fc (scFv, V domains shown)
VH: QVTLKESGPGLVNPSETLSLTCTVSGASISNSFWSWIRQSPGKGLEWIGYTSYSGNSIYNPSLKSRLTMSIDTSKNQLSLNLRSLTAADTAVYYCARREWIKGHFDYWGQGTLVTVSS
VL: B6 VL with S26G, G68D, H99P, W100V
B8: Ab 20 (scFv, V domains shown)
VH: QVQLVQSGGGSVKPGGSLRLSCAASGYRLSDYYMHWVRQAPGKGLEWVANIKQDGSEKYYVDSVKGRFTISRDNAKNSLYLQMNSLRAEDTAVYYCARVRGWSRGYFDYWGQGTLVTVSS
VL: B6 VL with G68D, T77L
B9: Ab 27 scFv-Fc (scFv, V domains shown)
VH: QVQLVQSGTEVKKPGASVKVSCKASGYSFTGSHLHWVRQAPGQGLEWMGWINPDSGVINYAQKFQGRVTLTRDTSISTAYMELSGLRSDDTAVYYCARDKAIGYVWALDYWGQGTLVTVSS
VL: QSALTQPPSVSGSPGQSVTISCTGTSSDVGTYNRVSWYQQPPGKAPKLMIYEVSNRPSGVSNRFSGSKSGNTASLTISGLQAEDEADYYCSSYTRTFTYVFGTGTKVTVL
B10: Ab_18 (scFv, V domains shown)
VH: EVQLVQSGGGVVQPGRSLRVSCAASGFSFSRYGMHWVRQAPGKGLEWVAFIRHDGSKKYYADSVEGRFTISRDNSRNTVSLEMNSLRGEDTAVYYCAKDGRLEAALDDWGQGTLVTVSS
VL: NFMLTQPHSMSGSAGKTVTVSCIRSSGSIANNFVQWYQQRPGSAPTTVIYEDNQRPSGVPDRFSGSIDSSSNSASLTISGLKTEDEADYYCQSYDSSNLVFGGGTRLTVL
B11: Ab 23 scFv-Fc (scFv, V domains shown)
VH: EVQLVQSGAEVKKPGSSVKVSCRSSGGTFSTYGITWVRQAPGQGLEWMGRIIPSLGIPNYAQKFQGRVTITADTSVSTAWMELSSLESDDTAIYYCARENIDLATNDFWGQGTLVTVSS
VL: QSALTQPPSASGSPGQSVTISCTGTSRDIGAYGYVSWYQQVPGKAPKLIIYEVRNRPSGVSSRFSGSKSGNTASLTISGLQAEDEADYYCSSYTSSSTLDVVFGGGTKLTVL
B12: Ab 19 scFv-Fc (scFv, V domains shown)
VH: EVQLVESGAEVKKPGESLKISCKGSGYSFTSYWIGWVRQMPGKGLEWMGIIYPGDSDTRYSPSFQGQVTISADKSISTAYLQWSSLKASDTAMYYCARRGDLDAFDIWGQGTMVTVSS
VL: QPGLTQPPAASGTPGQRVTVSCSGASANIGSNAVSWFKQFPETAPRLLISGNTHRPSGVPDRVSGSKSGTSASLTISGLQSDDEADYYCAAWDDSLNGYVFGSGTKVTVL
B13: Ab 21 (scFv, V domains shown)
VH: QVQLVQSGGGLVQPGGSLRLSCATSGFTFDDYAMHWVRQAPGKGLEWVSGISWNSGSIGYVDSVKGRFTISRDNRNNKVYLQMNNLRAEDTAVYYCARDWWGSIDHWGLGTLVTVSS
VL: QSALTQPRSVSGSPGQSVTISCTGTSSDVGGYDYVSWYQQHPGKAPKLIIYDVSKRPSGVPDRFSGSKSGNTASLTVSGLQAEDEADYYCSSYTSSSPVVFGGGTKLTVL
B14: RBD-R3-E1-B3 Ab (Ab_32) (scFv, V domains shown)
VH: QVQLVQSGAEVKKPGESLKISCKGSGYSFTSYWIGWVRQMPGKGLEWMGIIYPGDSDTRYSPSFQGQVTISADKSISTAYLQWSSLKASDTAMYYCARGWQWHDYWGQGTLVTVSS
VL: QTVVTQEPAVSVALGQTVRITCQGDSLRSYYASWYQQKPGQAPVLVVYDKDKRPSGIPDRFSGSTSGNTASLTITGAQAEDEADYYCNSRDRSDNHVVFGGGTKLTVL
B15: Ab 12 scFv-Fc (S1-R3-T1-H7) (scFv, V domains shown)
VH: EVQLVESGPGVVSPSATLFLTCSVSGGSIRTHSWNWIRQPPGKPLEWIGFIHHSGATNKNPSLKSRVTISSDTSKNEFSLTLTSVTAADTAVYYCARGPGILSYWSRGTLVTVSS
VL: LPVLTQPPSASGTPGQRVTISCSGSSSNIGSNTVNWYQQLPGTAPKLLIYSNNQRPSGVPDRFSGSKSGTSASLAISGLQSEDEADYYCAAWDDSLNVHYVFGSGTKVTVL
B16: Ab_16 (scFv, V domains shown)
VH: QVQLVQSGGGVVQPGRSLRLSCAASGFTFSNYGMHWVRQAPGKGLEWVALIWERGSKKDYADSVKGRFTVSRDNSKNTLYLQMNSLRPEDTAVYFCAREGISMTGAEYFQHWGQGTLVTVSS
VL: QSVLTQPPSVSGSPGQRVTMSCTGSSSNIGAGYDVHWYQQVPGAAPRLLIYGTNNRPSGVPDRFSGSKSGTSASLTITGLQAEDEADYYCQSYDNSLTDPYVFGTGTKVTVL

The binders below were run against T1, Biotinylated SARS-CoV-2 S1 protein (ACRO, S1N-C82E8) (UniProt P0DTC2 16-685) (assay: BLI).
B1 showed a Kd of 33 pM. For B2, the Kd was 1140 pM. B3 gave a Kd of 87.5 pM. Binder B4 has a Kd of 594 pM. B5 was tested, and the Kd was 716 pM. B6 showed a Kd of 10100 pM. With B7 the Kd was < 1 pM. With B8 the Kd was 5010 pM. B9 was tested, and the Kd was < 1 pM. In the case of B10, the Kd is reported as 121 pM. Work on B11 yielded a Kd of 338 pM. Binder B12 has a Kd of 130 pM. With B13 the Kd was 1280 pM. In the case of B14, the Kd is reported as 168 pM. For B15, the Kd was < 1 pM. In the case of B16, the Kd is reported as 2180 pM.

Target: T1, Biotinylated SARS-CoV-2 S1 protein …
Test: BLI
Remark: another data set of the same source
B1 was tested, and the Kd was 33 pM. B2 gave a Kd of 1140 pM. For B3, the Kd was 87.5 pM. With B4 the Kd was 594 pM. Work on B5 yielded a Kd of 716 pM. B6 was tested, and the Kd was 10100 pM. With B7 the Kd was < 1 pM. B8 gave a Kd of 5010 pM. With B9 the Kd was < 1 pM. B10 was tested, and the Kd was 121 pM. For B11, the Kd was 338 pM. In the case of B12, the Kd is reported as 130 pM. B13 gave a Kd of 1280 pM. B16 gave a Kd of 2180 pM.

Target: T1, Biotinylated SARS-CoV-2 S1 protein …
Test: BLI
Remark: another data set of the same source
With B15 the Kd was < 1 pM.

Target: T1, Biotinylated SARS-CoV-2 S1 protein …
Test: BLI
Remark: another data set of the same source
B15 was tested, and the Kd was < 1 pM.

Target: T1, Biotinylated SARS-CoV-2 S1 protein …
Test: BLI
Remark: another data set of the same source
With B15 the Kd was < 1 pM.

Target: T1, Biotinylated SARS-CoV-2 S1 protein …
Test: BLI
Remark: another data set of the same source
For B15, the Kd was < 1 pM.
